This experiment addresses riMod, retro-inverso model peptide. Kind of experiment: ELISA, immobilised riMod-BSA. (In an ELISA, binding on a coated surface is turned into a signal by an enzyme label.)

“non-immune mouse serum (polyclonal serum or antibody)” showed a titre (reciprocal of highest serum dilution) of 80.

The record behind these values is patent US6261569.
